Test results as given in patent US20230025600A1, “TREATMENT OF CANCERS WITH ANTIBODY DRUG CONJUGATES (ADC) THAT BIND TO 191P4D12 PROTEINS” (AGENSYS, INC., priority 2019, published 2023).

Legend:
[1] = EV-201 laboratory abnormalities; format: in vivo, human
Protocol: The data described in this section reflect exposure to PADCEV from EV-201, a single arm study in patients (n=125) with locally advanced or metastatic urothelial cancer who had received prior treatment with a PD-1 or PD-L1 inhibitor and platinum-based chemotherapy. Patients received PADCEV 1.25 mg/kg on Days 1, 8 and 15 of a 28-day cycle until disease progression or unacceptable toxicity. The median duration of exposure to PADCEV was 4.6 months (range: 0.5-15.6). […]

[2] = Pooled safety in 310 patients (EV-201, EV-101, EV-102); format: in vivo, human
Protocol: Because clinical trials are conducted under widely varying conditions, adverse reaction rates observed in the clinical trials of a drug cannot be directly compared to rates in the clinical trials of another drug and may not reflect the rates observed in practice. The data in the WARNINGS AND PRECAUTIONS section reflect exposure to PADCEV as a single agent at 1.25 mg/kg in 310 patients in EV-201, EV-101 (NCT02091999), and EV-102 ([…]). Among 310 patients receiving PADCEV, 30% were exposed for ≥6 months and 8% were exposed for ≥12 months.

pregnant rats = experiment: Rat embryo-fetal development study; format: in vivo
Text: Additionally, skeletal anomalies (asymmetric, fused, incompletely ossified, and misshapen sternebrae, misshapen cervical arch, and unilateral ossification of the thoracic centra) and decreased fetal weight were observed.

[3] = Exposure-response analysis; format: in vivo, human
191P4D12 = target: T1, 191P4D12 (Homo sapiens, UniProt Q96NY8); experiment: Comparability: analytical and biological characterization studies; details: binding affinity to 191P4D12, in vitro cytotoxicity, in vivo antitumor activity
T1 sequence (Q96NY8 32-510): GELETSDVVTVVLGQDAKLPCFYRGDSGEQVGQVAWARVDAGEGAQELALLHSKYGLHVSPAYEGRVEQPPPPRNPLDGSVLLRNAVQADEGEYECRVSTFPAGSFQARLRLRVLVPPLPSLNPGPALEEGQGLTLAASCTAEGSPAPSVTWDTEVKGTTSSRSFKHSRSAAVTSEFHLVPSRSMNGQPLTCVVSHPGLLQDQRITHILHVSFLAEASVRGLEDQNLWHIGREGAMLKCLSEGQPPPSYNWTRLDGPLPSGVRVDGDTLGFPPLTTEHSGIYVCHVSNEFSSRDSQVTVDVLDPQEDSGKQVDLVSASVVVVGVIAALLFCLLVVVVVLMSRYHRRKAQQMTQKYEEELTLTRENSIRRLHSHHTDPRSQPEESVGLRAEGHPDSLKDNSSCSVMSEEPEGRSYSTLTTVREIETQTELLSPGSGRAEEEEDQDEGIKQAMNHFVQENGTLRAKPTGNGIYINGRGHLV
Text: As described above and in U.S. Pat. No. 8,637,642, AGS-22M6E is an ADC derived from a murine hybridoma cell line. Enfortumab vedotin is the a Chinese hamster ovary (CHO) cell line-derived equivalent of AGS-22M6E ADC and is an exemplary product used for human treatment. Enfortumab vedotin has the same amino acid sequence, linker and cytotoxic drug as AGS-22M6E. The comparability between enfortumab vedotin and AGS-22M6E was confirmed through extensive analytical and biological characterization studies, such as binding affinity to 191P4D12, in vitro cytotoxicity, and in vivo antitumor activity.

[4] = EV-201, denominator 121 or 122 patients
[5] = 310 patients in clinical trials
[6] = 310 patients in clinical trials, 1.25 mg/kg

Q: For enfortumab vedotin-ejfv [PADCEV], which “Creatinine increased, Grade 3-4” value [1, 4] is on record?
A: The value was 2%.

Q: What about the “Creatinine increased, Grades 2-4” value [1, 4] of the same substance?
A: The value was 20%.

Q: What about the “Glucose increased, Grade 3-4” value [1, 4] of the same substance?
A: The value was 8%.

Q: And the “Hemoglobin decreased, Grade 3-4” value [1, 4]?
A: Its value is 10%.

Q: What about the “Hemoglobin decreased, Grades 2-4” value [1, 4] of the same substance?
A: The value was 34%.

Q: What about the “Leukocytes decreased, Grade 3-4” value [1, 4] of the same substance?
A: Its value is 4%.

Q: What about the “Leukocytes decreased, Grades 2-4” value [1, 4] of the same substance?
A: Its value is 14%.

Q: And the “Lipase increased, Grade 3-4” value [1, 4]?
A: The value was 9%.

Q: What about the “Lipase increased, Grades 2-4” value [1, 4] of the same substance?
A: The value was 14%.

Q: And the “Lymphocytes decreased, Grade 3-4” value [1, 4]?
A: Its value is 10%.

Q: And the “Lymphocytes decreased, Grades 2-4” value [1, 4]?
A: Its value is 32%.

Q: What about the “Neutrophils decreased, Grade 3-4” value [1, 4] of the same substance?
A: Its value is 5%.

Q: And the “Neutrophils decreased, Grades 2-4” value [1, 4]?
A: Its value is 14%.

Q: And the “Phosphate decreased, Grade 3-4” value [1, 4]?
A: Its value is 10%.

Q: What about the “Phosphate decreased, Grades 2-4” value [1, 4] of the same substance?
A: Its value is 34%.

Q: And the “Sodium decreased, Grade 3-4” value [1, 4]?
A: Its value is 8%.

Q: What about the “Sodium decreased, Grades 2-4” value [1, 4] of the same substance?
A: The value was 8%.

Q: What about the “Urate increased, Grade 3-4” value [1, 4] of the same substance?
A: Its value is 7%.

Q: What about the “Urate increased, Grades 2-4” value [1, 4] of the same substance?
A: Its value is 7%.

Q: What about the “patients with non-fasting glucose >160-250 mg/dL” value ([1]; EV-201, fasting glucose not measured, 23 patients) of the same substance?
A: The value was “^†CTCAE Grade 2 is defined as fasting glucose >160-250 mg/dL. Fasting glucose levels were not measured in EV-201. However, 23 (19%) patients had non-fasting glucose >160-250 mg/dL”.

Q: And the blurred vision ([2]; 310 patients)?
A: Its blurred vision is 14%.

Q: And the dry eye symptoms ([2]; 310 patients)?
A: The dry eye symptoms was 19%.

Q: And the “extravasation reactions with secondary cellulitis, bullae, or exfoliation” value ([2]; 310 patients)?
A: The value was “One”.

Q: What about the “median time to onset to symptomatic vision disorder” value ([2]; 310 patients) of the same substance?
A: Its value is 3.1 months.

Q: And the ocular disorders ([2]; 310 patients)?
A: Its ocular disorders is 46%.

Q: And the “skin and soft tissue reactions secondary to extravasation” value ([2]; 310 patients)?
A: The value was 1.3%.

Q: And the “Grade 3-4 skin reactions” value [2, 5]?
A: The value was 10%.

Q: And the maculopapular rash [2, 5]?
A: Its maculopapular rash is 26%.

Q: And the pruritus [2, 5]?
A: Its pruritus is 30%.

Q: And the skin reactions [2, 5]?
A: Its skin reactions is 54%.

Q: What about the “peripheral neuropathy Grade 3 reactions” value [2, 6] of the same substance?
A: The value was 2%.

Q: And the “peripheral neuropathy, predominantly sensory” value [2, 6]?
A: Its value is 49%.

Q: And the “differences in safety or effectiveness between patients 65 years or older and younger patients” value ([2]; 310 patients, 187 were 65 years or older, 80 were 75 years or older)?
A: The value was “No overall differences”.

Q: What about the “erythema, swelling, increased temperature and pain worsened until, after extravasation” value ([2]; infusion site extravasation) of the same substance?
A: Its value is 2 to 7 days.

Q: What about the “extravasation reactions resolved within, of peak” value ([2]; infusion site extravasation) of the same substance?
A: Its value is 1-4 weeks.

Q: What about the “incidence of Grade 3-4 hyperglycemia with higher body mass index and higher baseline A1C” value ([2]; patients treated with PADCEV) of the same substance?
A: Its value is “increased consistently”.

Q: And the “findings in pregnant rats dosed during organogenesis” value (pregnant rats; maternal exposures approximately similar to exposure at recommended human dose of 1.25 mg/kg)?
A: The value was “maternal toxicity, embryo-fetal lethality, structural malformations and skeletal anomalies”.

Q: What about the “skeletal anomalies and decreased fetal weight” value (pregnant rats; rat pilot embryo-fetal development study) of the same substance?
A: Its value is “observed”.

Q: And the “exposure at 5 mg/kg relative to the recommended human dose” value (pregnant rats; rat, 5 mg/kg)?
A: Its value is “approximately 3 times the exposure at the recommended human dose”.

Q: And the “outcome at 2 mg/kg” value (pregnant rats; rat, gestation day 6 and 13, 2 mg/kg, approximately similar to exposure at recommended human dose)?
A: The value was “maternal toxicity, embryo-fetal lethality and structural malformations”.

Q: What about the “outcome at the maternally toxic dose of 5 mg/kg” value (pregnant rats; rat, gestation day 6 and 13, 5 mg/kg) of the same substance?
A: The value was “complete litter loss in all pregnant rats”.

Q: And the “association of higher exposure” value ([3]; e.g. Grade >=2 peripheral neuropathy, Grade >=3 hyperglycemia)?
A: The value was “higher incidence of some adverse reactions”.

Q: What about the “association of lower exposure” value ([3]; exposure-response analysis) of the same substance?
A: The value was “lower efficacy”.

Q: What about the “comparability between enfortumab vedotin and AGS-22M6E” value (191P4D12) of the same substance?
A: The value was “confirmed”.
